Laboratory results from US20190276557A1 (APROGEN KIC, published 2019).

Target: recombinant protein carbonic anhydrase 12 (R&D Systems) (Homo sapiens (Human), UniProt O43570 25-291, limits assumed)
Sequence (O43570 25-291 limits assumed): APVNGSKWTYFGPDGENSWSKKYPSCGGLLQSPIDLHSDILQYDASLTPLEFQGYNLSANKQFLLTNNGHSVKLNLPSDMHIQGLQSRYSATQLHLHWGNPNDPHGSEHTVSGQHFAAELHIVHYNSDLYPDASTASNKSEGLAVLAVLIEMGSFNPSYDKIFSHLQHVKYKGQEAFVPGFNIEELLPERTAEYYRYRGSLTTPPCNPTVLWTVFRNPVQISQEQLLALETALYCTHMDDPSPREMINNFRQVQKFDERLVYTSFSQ

B1: clone ID 1 (phage displayed scFv) (scFv)
chain: EVQLVESGGGLVQPGGSLRLSCAASGYSYTDYNIYWVRQAPGKGLEWVGYIDPANGDTTYNQKFKGRATISVDKSKNTAYLQMNSLRAEDTAVYYCSRPIYYGAYWYFDVWGQGTLVTVSSDIQMTQSPSSLSASVGDRVTITCRASSPVTYMHWYQQKPGKAPKPWIYATSSLAPGVPSRFSGSGSGTDFTLTISSLQPEDFATYYCQQWSSNPLTFGQGTKVEIK
ELISA signal relative to the 4B4 chimeric antibody: 1.5 times
